According to US20190275084A1 (KYMAB, published 2019):

B1: 2D10 (human) (antibody, human IgG4 S228P, kappa, V domains shown)
VH: EVQLVESGGGLVQPGGSLRLSCAASGFTFSNYAMNWVRQAPGKGLEWVSTISGSGGATRYADSVKGRFTISRDNSRNTVYLQMNSLRVEDTAVFYCTKDRLIMATVRGPYYYGMDVWGQGTTVTVSS
VL: DIQMTQSPSSLSASVGDRVTITCRASQSISSYLNWYQQKPGKAPNLLIYAASSLQSGVPSRFSGSGSETDFTLTISSLQPEDFATYYCQQSHSVSFTFGPGTKVDIKR
notes: Recombinant fully human IgG4-PE/kappa; also called 02D10 IgG4-PE; 2D10 IgG4PE
B2: 2D10 (hybridoma) (antibody, V domains shown)
VH: B1 VH
VL: DIQMTQSPSSLSASVGDRVTITCRASQSISSYLNWYQQKPGKAPNLLIYAASSLQSGVPSRFSGSGSETDFTLTISSLQPEDFATYYCQQSHSVSFTFGPGTKVDIK
notes: Purified from hybridoma supernatant as a murine/human chimeric antibody (human variable domains, mouse constant regions); also called 02D10
B3: 9H04 (hybridoma) (antibody, V domains shown)
VH: QVQLVESGGGLVKPGGSLRLSCAASRFTLSDYYMTWIRQAPGKGLEWVSYISSSGNTIYYADSVKGRFTISRDNAKNSLYLQMNSLRAEDTAVYYCARDLSGSYWDYYYGMDVWGQGTTVTVSS
VL: AIQLTQSPSSLSTSVGDRVTIACRASQGINNALAWYQQKPGKAPKLLIYDASSLESGVPSRFSGSGSGTDFTLTISSLQPEDFATYYCQQFNSYPRTFGQGTKVEIK
notes: Purified from hybridoma supernatant as a murine/human chimeric antibody (human variable domains, mouse constant regions); also called 09H04
B4: 19H01 (hybridoma) (antibody, V domains shown)
VH: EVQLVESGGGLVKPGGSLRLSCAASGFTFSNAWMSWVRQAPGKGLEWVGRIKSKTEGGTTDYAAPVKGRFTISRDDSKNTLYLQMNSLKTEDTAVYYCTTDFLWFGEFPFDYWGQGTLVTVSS
VL: DIQMTQSPSSLSASVGDRVTITCRASQGISNYLAWYQQKPGKIPKLLIYAASTLQSGVPSRFSGSGSGTDFTLTISSLQPEDVATYYCQKYNSAPRTFGQGTKVEIK
notes: Purified from hybridoma supernatant as a murine/human chimeric antibody (human variable domains, mouse constant regions)
B5: 10A07 (human) (antibody, V domains shown)
VH: EVQLVESGGVLVQPGGSLRLSCAASGFTFSSYIMTWVRQAPGKGLEWVSGISGSGGGTYYADSMKGRFTISRDNSKNTLYLQMNSLRVEDTAVYYCAKDRLGPITLVRGGYYYGMDVWGQGTTVTVSS
VL: DIQMTQSPSSLSASVGDRVTITCRASQSISDYLNWYQQKPGKAPKFLIYAASSLQSGVPSRFSGSGSGTDFTLTVSSLQPEDFATYYCQQSYSTPRTFGQGTRVEIKR
notes: also called 10A07 IgG4PE; 10A7 IgG4-PE
B6: 10A07 (hybridoma) (antibody, V domains shown)
VH: B5 VH
VL: DIQMTQSPSSLSASVGDRVTITCRASQSISDYLNWYQQKPGKAPKFLIYAASSLQSGVPSRFSGSGSGTDFTLTVSSLQPEDFATYYCQQSYSTPRTFGQGTRVEIK
notes: Purified from hybridoma supernatant as a murine/human chimeric antibody (human variable domains, mouse constant regions); also called 10A7

Tests used:
[1] = biological target: T1, Recombinant Human OX40L (Leader sequence, Isoleucine Zipper and FLAG Sequence Included) (human); experiment: HTRF receptor neutralisation: antibody titrated against biotinylated hOX40L and OX40RFc-AF647; mean +/- SEM of three experiments
T1 construct: It was used biotinylated in the HTRF assays and unlabelled in SPR and in the IL-2 release assay; also called hOX40L; recombinant hOX40L
T1 sequence (chain, as listed by the source limits assumed): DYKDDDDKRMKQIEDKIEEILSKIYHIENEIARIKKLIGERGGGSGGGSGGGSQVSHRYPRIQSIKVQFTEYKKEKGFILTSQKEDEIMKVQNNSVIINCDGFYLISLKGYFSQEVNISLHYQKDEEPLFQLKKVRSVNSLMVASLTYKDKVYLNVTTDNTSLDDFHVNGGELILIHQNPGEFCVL

[2] = biological target: T2, Recombinant Rhesus OX40L (Leader Sequence, FLAG and Isoleucine zipper included) (Rhesus (Macaca mulatta)); experiment: SPR (ProteOn XPR36), antibody captured, rhesus OX40L at 256 nM, 25 C; CNROR = cannot resolve off-rate
T2 construct: also called RhsOX40L; Rhesus monkey OX40L
T2 sequence (chain, as listed by the source limits assumed): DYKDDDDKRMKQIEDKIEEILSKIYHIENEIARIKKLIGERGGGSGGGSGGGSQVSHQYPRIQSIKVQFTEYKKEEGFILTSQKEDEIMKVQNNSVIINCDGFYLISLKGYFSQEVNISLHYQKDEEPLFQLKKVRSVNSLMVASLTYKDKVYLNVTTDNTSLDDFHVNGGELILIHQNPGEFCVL
Protocol: (§1) SPR analysis was carried out using the ProteOn™ XPR36 Array System (BioRad). Anti-mouse IgG (GE Healthcare BR-1008-38) was immobilised on a GLM biosensor surface using amine coupling, the surface was then blocked using 1 M ethanolamine. Test antibodies were captured on this surface and recombinant hOX40L (human and rhesus) were used at a single concentration of 256 nM, binding sensorgrams were double referenced using a buffer injection (i.e. 0 nM) to remove baseline drift and injection artefacts. Apparent affinities for the OX40L-antibody interaction were determined using the 1:1 model inherent to the ProteOn XPR36 analysis software. The assay was run using HBS-EP (Teknova) as running buffer and carried out at 25° C.

[3] = biological target: T1, Recombinant Human OX40L (Leader …); experiment: HTRF ligand/receptor neutralisation: antibody titrated against biotinylated hOX40L; the blocked ligand is OX40RFc-AF647; streptavidin cryptate detection
Protocol: Fully human purified IgG or other inhibitor were tested in order to establish the clone potency as measured by IC₅₀ values in the assay. Antibodies recombinantly expressed and purified were titrated by diluting in HTRF assay buffer and 5 μL of this titration transferred to a white 384 well low volume non-binding surface polystyrene plate (Greiner). Biotinylated OX40L was diluted in HTRF assay buffer to a working concentration of 2.4 nM and 5 μL added. […] Streptavidin cryptate (CISBIO) was diluted in HTRF assay buffer to working concentration of 1:100 and 5 μL added to all wells of the plate. Plates were covered, protected from light and incubated at room temperature for 3 hrs prior to reading time resolved fluorescence at 620 nm and 665 nm emission wavelengths using an EnVision plate reader (Perkin Elmer). Data were analysed by calculating delta F as described in Equation 4 and percentage of receptor for each sample according to Equation 5 or in some cases Equation 6. IC₅₀ values were determined using GraphPad Prism software by curve fitting using a four-parameter logistic equation (Equation 7) (FIG. 1).

[4] = biological target: T1, Recombinant Human OX40L (Leader …); experiment: cell-based or functional assay
[5] = biological target: T1, Recombinant Human OX40L (Leader …); experiment: SPR (ProteOn XPR36), apparent affinity, antibody captured on anti-mouse IgG, hOX40L at 256 nM, 1:1 model, 25 C
Protocol: as §1

IC50 [1] [nM]	binding result [2]	IC50 (read off the curve) [3] [nM]	Primary T-cell Assay IC50 nM (recombinant OX40L induced IL2 release from primary human T-cells) [4] [nM]	Kd [5] [nM]	Binder
0.75	binds	~0.8	0.81	–	B1
–	binds	–	–	–	B2
–	–	–	–	5.3	B3
–	–	–	–	2.2	B4
1.2	binds	~1	0.83	–	B5
–	binds	–	–	–	B6
